According to patent US20090092631A1 (TRIPEP, published 2009):
“And” between values parts separate entries of the source, which are not always exact repeats. Equal values may be shown once. Ends that are not written are not given here. * marks the point of attachment. Galα1‑3Galβ1‑O(CH2)3NH2 = OC[C@H]1O[C@H](O[C@H]2[C@@H](O)[C@@H](CO)O[C@@H](OCCCN*)[C@@H]2O)[C@H](O)[C@@H](O)[C@H]1O

What was measured:
[1] = molecular target: T1, gp120 of HIV-1 IIIB virus (HIV-1 IIIB, UniProt P04578 33-856); experiment: cell-based or functional assay
[2] = molecular target: T1, gp120 of HIV-1 IIIB virus; experiment: cell-based or functional assay; remark: listed apart in the source
[3] = molecular target: T2, LAI gp120 molecule (PerkinElmer, Denmark) (HIV-1 LAI, UniProt P03377 33-516); experiment: ELISA on coated LAI gp120, detection with 1:10 or 1:20 human serum
T2 construct: domain: gp120; also called gp120 from LAI virus

Row | Binder | neutralization (inhibition of syncytia formation, U87 CD4+ CXCR4+ cells), peptide without serum [1] [%] | percentage of neutralization of the virus (plaque assay, U87 CD4 cells, HIV-1 IIIB); CD4 peptide alone 0.1 ug/ml [2] | percentage of neutralization of the virus (plaque assay, U87 CD4 cells, HIV-1 IIIB); CD4 peptide alone 1 ug/ml [2] | percentage of neutralization of the virus (plaque assay, U87 CD4 cells, HIV-1 IIIB); CD4 peptide alone 10 ug/ml [2] | percentage of neutralization of the virus (plaque assay, U87 CD4 cells, HIV-1 IIIB); glycosylated Sp. exchanger 0.1 ug/ml & 1:10 dilution human serum [2] | percentage of neutralization of the virus (plaque assay, U87 CD4 cells, HIV-1 IIIB); glycosylated Sp. exchanger 0.1 ug/ml & 1:20 dilution human serum [2] | percentage of neutralization of the virus (plaque assay, U87 CD4 cells, HIV-1 IIIB); glycosylated Sp. exchanger 0.1 ug/ml, no serum [2] | percentage of neutralization of the virus (plaque assay, U87 CD4 cells, HIV-1 IIIB); glycosylated Sp. exchanger 1 ug/ml & 1:10 dilution human serum [2] | percentage of neutralization of the virus (plaque assay, U87 CD4 cells, HIV-1 IIIB); glycosylated Sp. exchanger 1 ug/ml & 1:20 dilution human serum [2] | percentage of neutralization of the virus (plaque assay, U87 CD4 cells, HIV-1 IIIB); glycosylated Sp. exchanger 1 ug/ml, no serum [2] | percentage of neutralization of the virus (plaque assay, U87 CD4 cells, HIV-1 IIIB); glycosylated Sp. exchanger 10 ug/ml & 1:10 dilution human serum [2] | percentage of neutralization of the virus (plaque assay, U87 CD4 cells, HIV-1 IIIB); glycosylated Sp. exchanger 10 ug/ml & 1:20 dilution human serum [2] | percentage of neutralization of the virus (plaque assay, U87 CD4 cells, HIV-1 IIIB); glycosylated Sp. exchanger 10 ug/ml, no serum [2] | lowest glycopeptide concentration at which binding was detected [3] | decrease in the infectivity (RT activity day 11, H9 cells, HIV IIIB) at 0.01 µg/ml glycopeptide (approximately 5 nM) with 5 or 10% human serum [1] [%] | neutralization (RT activity day 11, H9 cells, HIV IIIB) at 1 µg/ml glycopeptide with 5 or 10% human serum [1] [%]
1 | NSNQIKILGNQGSFL [CD4 peptide alone, Seq. Id. No. 5 (non-glycosylated)] | < 40 | < 0.3 fraction (0.3 equals 30%) | < 0.3 fraction (0.3 equals 30%) | < 0.3 fraction (0.3 equals 30%) | – | – | – | – | – | – | – | – | – | – | – | –
2 | DNSNQIKILGNQGSFL (not fully specified (residue 1), also called GP2; glycopeptide 2) [Gal-CD4-101] | < 40 | – | – | – | < 0.3 fraction (0.3 equals 30%) | < 0.3 fraction (0.3 equals 30%) | < 0.3 fraction (0.3 equals 30%) | 0.39 fraction (0.3 equals 30%) | 0.32 fraction (0.3 equals 30%) | < 0.3 fraction (0.3 equals 30%) | 0.49 fraction (0.3 equals 30%) | 0.429 fraction (0.3 equals 30%) | < 0.3 fraction (0.3 equals 30%) | ~5 nM and 10 ng/ml | – | –
3 | DKILGNQGSFLTKGPS (not fully specified (residue 1), also called GP3; glycopeptide 3) [Gal-CD4-102] | < 40 | – | – | – | 0.5 fraction (0.3 equals 30%) | < 0.3 fraction (0.3 equals 30%) | < 0.3 fraction (0.3 equals 30%) | 0.42 fraction (0.3 equals 30%) | < 0.3 fraction (0.3 equals 30%) | – | 0.6 fraction (0.3 equals 30%) | < 0.3 fraction (0.3 equals 30%) | – | ~5 nM and 10 ng/ml | > 50 | 90
4 | QFHWKNSNQIKILGN [CD4 peptide alone, Seq. Id. No. 4 (non-glycosylated)] | < 40 | < 0.3 fraction (0.3 equals 30%) | < 0.3 fraction (0.3 equals 30%) | < 0.3 fraction (0.3 equals 30%) | – | – | – | – | – | – | – | – | – | – | – | –
5 | KILGNQGSFLTKGPS [CD4 peptide alone, Seq. Id. No. 6 (non-glycosylated)] | < 40 | < 0.3 fraction (0.3 equals 30%) | < 0.3 fraction (0.3 equals 30%) | < 0.3 fraction (0.3 equals 30%) | – | – | – | – | – | – | – | – | – | – | – | –
6 | KLNDRADSRRSLWDQ [non-glycosylated CD4 peptide, Seq. Id. No. 9] | < 40 | – | – | – | – | – | – | – | – | – | – | – | – | – | – | –
7 | DTKGPSKLNDRADSRR (not fully specified (residue 1), also called glycopeptide 5) [Gal-CD4-104] | < 40 | – | – | – | 0.778 fraction (0.3 equals 30%) | 0.701 fraction (0.3 equals 30%) | – | 0.821 fraction (0.3 equals 30%) | 0.667 fraction (0.3 equals 30%) | 0.548 fraction (0.3 equals 30%) | 0.83 fraction (0.3 equals 30%) | 0.642 fraction (0.3 equals 30%) | 0.552 fraction (0.3 equals 30%) | 10 ng/ml and ~5 nM | > 50 | 90
8 | DKLNDRADSRRSLWDQ (not fully specified (residue 1), also called GP6; glycopeptide 6) [Gal-CD4-105] | < 40 | – | – | – | 0.76 fraction (0.3 equals 30%) | 0.71 fraction (0.3 equals 30%) | < 0.3 fraction (0.3 equals 30%) | 0.75 fraction (0.3 equals 30%) | 0.75 fraction (0.3 equals 30%) | < 0.3 fraction (0.3 equals 30%) | 0.78 fraction (0.3 equals 30%) | 0.74 fraction (0.3 equals 30%) | < 0.3 fraction (0.3 equals 30%) | 10 ng/ml and ~5 nM | – | –
9 | D(Galα1‑3Galβ1‑O(CH2)3NH2)QGSFLTKGPSKLNDR (also called GP4; glycopeptide 4) [Gal-CD4-103] | < 40 | – | – | – | 0.439 fraction (0.3 equals 30%) | < 0.3 fraction (0.3 equals 30%) | < 0.3 fraction (0.3 equals 30%) | 0.461 fraction (0.3 equals 30%) | < 0.3 fraction (0.3 equals 30%) | < 0.3 fraction (0.3 equals 30%) | 0.454 fraction (0.3 equals 30%) | < 0.3 fraction (0.3 equals 30%) | < 0.3 fraction (0.3 equals 30%) | 10 ng/ml and ~5 nM | > 50 | 90
10 | D(Galα1‑3Galβ1‑O(CH2)3NH2)QFHWKNSNQIKILGN (also called GP1; glycopeptide 1) [Gal-CD4-100] | < 40 | – | – | – | 0.48 fraction (0.3 equals 30%) | 0.47 fraction (0.3 equals 30%) | < 0.3 fraction (0.3 equals 30%) | 0.48 fraction (0.3 equals 30%) | 0.47 fraction (0.3 equals 30%) | < 0.3 fraction (0.3 equals 30%) | 0.55 fraction (0.3 equals 30%) | 0.48 fraction (0.3 equals 30%) | < 0.3 fraction (0.3 equals 30%) | ~5 nM and 10 ng/ml | – | –
11 | TKGPSKLNDRADSRR [non-glycosylated CD4 peptide, Seq. Id. No. 8] | < 40 | – | – | – | – | – | – | – | – | – | – | – | – | – | – | –
12 | QGSFLTKGPSKLNDR [CD4 peptide alone, Seq. Id. No. 7 (non-glycosylated)] | < 40 | < 0.3 fraction (0.3 equals 30%) | < 0.3 fraction (0.3 equals 30%) | < 0.3 fraction (0.3 equals 30%) | – | – | – | – | – | – | – | – | – | – | – | –
